From the RNAGym collection of RNA variant scans (doi:10.1073/pnas.2313332121)
Variants at the floor of the assay were thinned out.

B1: TPR 5TU (parent)
chain: GGAUCUUCUCGAUCUAACAAAAAAGACAAAUCUGCCACAAAGCUUGAGAGCAUCUUCGGAUGCAGAGGCGGCAGCCUUCGGUGGCGCGAUAGCGCCAACGUUCUCAACUAUGACACGCAAAACGCGUGCUCCGUUGAAUGGAGUUUAUCAUG

Variants of: B1
Experiment: polymerase ribozyme fitness, log enrichment relative to wild type (log ratio); higher = more active; in vitro selection for triplet polymerase activity
Method in brief: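 Libraries of mutants in each subunit of a heterodimeric triplet polymerase ribozyme were generated by PCR and transcribed. In triplicate, each went through one in vitro selection round: annealing with biotinylated primer, partner subunit and triplets; frozen incubation at −7 °C; gel excision of extended constructs; streptavidin-bead capture; RT-PCR. Fitness, taken from Illumina sequencing of input and output libraries, is the logarithm of a genotype's enrichment over wild-type enrichment, averaged across replicates with inverse-variance weights. The logarithm is base 2, and genotypes needed ≥10 input reads and ≥1 read per output to be kept.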

Variant | polymerase ribozyme fitness (log ratio)
GGAUCUUCUCGAUCUAACAAAAAAGACAAAUCUGCCACAAAGCUUGAGAGGAUCUUCGGAUGCAGAGGCGGCGGCCUUGGGUGGCGGGAUAGCGCCAACGUUCUCAACUAUGACACGCAAAACGCGUGCUCCGUUGAAUCGAGAUUAUCAUG | ≤ -4.2
GGAUCUUCUCGAUCUAACAAAAAAGACAAAUCUGCCACAAAGCUUGAGAGGAUCUUCGGAUGCAGAGGCGGCAGCCUUGGGUGGCGCGAUAGCGCGAACGUUCUCAACUAUGACACGCAAAACGCGUGCUCCGUUGAAUGGAGUUUAUCAUG | ≤ -4.2
GGAUCUUCUCGAUCUAACAAAAAAGACAAAUCUGCCACAAAGCUUGAGAGAAUCAUCGGCUGCAGAGGCGGCAACCUUCGAUGGCGCGAGAGCGACAACGUUCUCAACUAUGACACGCAAAACGCGUGCUCCGUUGAAUGGAGUUUAUCAUG | ≤ -4.2
GGAUCUUCUCGAUCUAACAAAAAAGACAAAUCUGCCACAAAGCUUGAGAGAAUCUUCGGAUGCAGAGGCGGCAGCCUUCGGUGGCACGAUAGCGCCAACGUUCUCAACUAUGACACGCAAAACGCAUUCUCCGUUGAAUGAAGUUUAUCAUG | ≤ -4.2
GGAUCUUCUCGAUCUAACAAAAAAGACAAAUCUGCCACAAAGCUUGAGAGGGUCUUCGGAUGCAGAGGCGGCAGCCUUCGGUGGCGCGAUAGCGCCAACGUACUCAACUAUGACACGCAAAACGCGUGCUCCGUUGAAUGGAGUUUAUCAUG | -3.01
GGAUCUUCUCGAUCUAACAAAAAAGACAAAUCUGCCACAAAGCUUGAGAGAAUCUUCGGAUGCAGAAGCGGCGGCCUUCGGUGGCGCGAUAGCGACAACGGUCUCAACUAUGACACGCAAAACGCGUGCUCCGUUGAAUUGAGUUUAUCAGG | ≤ -4.2
GGAUCUUCUCGAUCUAACAAAAAAGACAAAUCUGCCACAAAGCUUGAGAGAAUCGUCUGAUGCAGAGGCGGCAGCCUUCGGUGGCGCGAUAGCGACAACGUUCUCAACUAUGACACGCAAAACGCGUGCUCCGUUGAAUGGAGUUUAUCAUG | -1.74
GGAUCUUCUCGAUCUAACAAAAAAGACAAAUCUGCCACAAAGCUUGAGAGGAUCUUCGGAUGCAGAGGCGGCAGCCUUCGGUGGCGCGAUGUCGCCAACGCUCUCAACUAUGACACGCAAAACGCGUGCUCCGUUGAAUGGAGUUUAUCAUG | ≤ -4.2
GGAUCUUCUCGAUCUAACAAAAAAGACAAAUCUGCCACAAAGCUUGAGAGGAUCUUCGGAUGCAGAGGCGGCAGUCUUACGUGGCGAGAUAGCGCCAUCGUUGUCAACUAUGACACGCAAAACGCGUGCUCCGUUGAAUGGAGUGUAUCAUG | ≤ -4.2
GGAUCUUCUCGAUCUAACAAAAAAGACAAAUCUGCCACAAAGCUUGAGAGAAUCUUCGGAUGCAGAGGCGGCAACCUUCGGUGGCGCGAUAGCGCCAACGUUCUCAACUAUGACACGCAAAACGCGUGCUCCGUUGAAUGGAGUUUAUCAUG | ≤ -4.2
GGAUCUUCUCGAUCUAACAAAAAAGACAAAUCUGCCACAAAGCUUGAGAGGAUCUUCGGAUGUAGAGGCGGCAGCCUUCGGUGGCGCGAUAGCGCCAACGUUCUCAACUAUGACAUGCAAAACGCGUGCUCCGUUGAACGGAGUUUAUCAUG | ≤ -4.2
GGAUCUUCUCGAUCUAACAAAAAAGACAAAUCUGCCACAAAGCUUGAGAGGAUCUUCGGAUGCAGAGGCGGCUGCCUUCGGUGGCGCGAUAGCGCCAACGUUCUCAACUAUGACACGCAAAACGCGUGCUCCGUUGAAUGGAGUUUAUCAUG | -3.44
GGAUCUUCUCGAUCUAACAAAAAAGACAAAUCUGCCACAAAGCUUGAGAGAAUCUUCGGAUGCAGAGGCGGCAACCUUCGGUGGAGCGAUAGCGCCAACGUUCUCAACUAUGAAACGCAAAACGCGUGCUCCGUUGAAUGGAGUUUAUCAUG | ≤ -4.2
GGAUCUUCUCGAUCUAACAAAAAAGACAAAUCUGCCACAAAGCUUGAGAGAAUCUUCGGAUGCAGAGGCGGCAGCCUUCGGUGGCGCGAUAGCGCCAACGUACUCAACUAUGACACGCAAAACGCGUGCUCCGUUGAAUGGAGUUUAUCAUG | -1.41
GGAUCUUCUCGAUCUAACAAAAAAGACAAAUCUGCCACAAAGCUUGAGAGGAUCUUCGGAUGCAGAGGCGGCAGCAUUCGGUGGCGUGAUAGCGCCAACGUUCUCAACUAUGACACGCAAAACGCGUGCUCCGUUGAAUGGAGUUUAUCAUG | ≤ -4.2
GGAUCUUCUCGAUCUAACAAAAAAGACAAAUCUGCCACAAAGCUUGAGAGAAUCUUCGGAUGCAGAGGCGGCAGCCUUCGGUGGCCCGUUAGCGCCAACGUUCUCAACUAUGUCACGCAAAACGCAUGCUCCGUUGAAUGUAGUUUAUCAUG | ≤ -4.2
GGAUCUUCUCGAUCUAACAAAAAAGACAAAUCUGCCACAAAGCUUGAGAGGAUUUUCGGAUGCAGAGGCGGCAGCCUUCGGUGGCGCGAUAGCGCCAGCGUUCUCAACUAUGACACGCAAAACGCGUGCUCAGUGGAAUGGAGUUUAUCAUG | ≤ -4.2
GGAUCUUCUCGAUCUAACAAAAAAGACAAAUCUGCCACAAAGCUUGAGAGAAUCUUCGGAUGCAGAGUCGGCAGCCUUCGGCGGCGCGAUAGCGCCAACGUUCUCAACUAUGACAUGCAAAACGCGUGCUCCGUUGAAUGGAGUUGAUCAUG | ≤ -4.2
GGAUCUUCUCGAUCUAACAAAAAAGACAAAUCUGCCACAAAGCUUGAGAGAAUCUUCGUAUGCAGAGGCGGCAGCCUUCGGUGUCGCGAUAGCGCCAACGUUCUCAACUAUGACACGCAAAACGCGUGCUCCGUUGAAUGGAGUUUAUCAUG | ≤ -4.2

Variant | polymerase ribozyme fitness (log ratio)
GGAUCUUCUCGAUCUAACAAAAAAGACAAAUCUGCCACAAAGCUUGAGAGGAUCUUUGGAUGCAGACGCGGCAGCCUUCGGUGGCGGGAUGGCGCCAACGUUCUCAACUAUGACACGCAAAACGCGUGCUCCGUUGAAUGGAGUUUAUCAUG | ≤ -4.2
GGAUCUUCUCGAUCUAACAAAAAAGACAAAUCUGCCACAAAGCUUGAGAGGAUCUUCGGAUGCCGAGGUGGCAGCCUUCAGUGGCACGAUAGCGCUAACGUUCUCAACUAUGAAACGCAAAACGCGUGCUCCGUUGAAUGGAGUUUAUCAUG | ≤ -4.2
GGAUCUUCUCGAUCUAACAAAAAAGACAAAUCUGCCACAAAGCUUGAGAGGAUCUUCGGAUGCAGAGGCGGCAGCCUUCGGUGGCGCGAUUGCGCCAACGUUCUCAACUAUGACACGCAAAACGCGUGCUCCGUUGAAUGGAGUUUAUCAUG | ≤ -4.2
GGAUCUUCUCGAUCUAACAAAAAAGACAAAUCUGCCACAAAGCUUGAGAGGAUCUUCGGAUGCAGAGGCGGCAGCCUUCGGUGGCGCGAUGGCGCCAACGUUCUCAACUAUGACACGCAAAACGCGUGCUCCGUUGAAUGGAGUUUAUCAUG | ≤ -4.2
GGAUCUUCUCGAUCUAACAAAAAAGACAAAUCUGCCACAAAGCUUGAGAGGAUCUUCGGAUGCAGAGGCGGCAGCCUUAGGUGGCGCGAUAGCGCCAACGUUCUCAACUAUGACACGCAAAACGCGUGCUCCGUUGAAUGGAGUUUAUCAUG | ≤ -4.2
GGAUCUUCUCGAUCUAACAAAAAAGACAAAUCUGCCACAAAGCUUGAGAGGAUCUUCGGAUGCAGAGGCGGCAGCCUUCGGUGGCGCGAUAGCGCCAACGUUCUCGACUAUGACACGCAAAACGCGUGCUCCGUUGAAUGGAGUUUAUCAUG | -3.04
GGAUCUUCUCGAUCUAACAAAAAAGACAAAUCUGCCACAAAGCUUGAGAGAAUCUUCGGAUGCAGAGGCGGCAGCCUUCGGUGGCGCGAUAGCGCCAACGUUCUCAACUAUGACACGCAAAACGCGUGCUCCGUUGAAUCGAGUUUAUCAUG | -4.19
GGAUCUUCUCGAUCUAACAAAAAAGACAAAUCUGCCACAAAGCUUGAGAGAAUCUUCGGAUGCAGAGGCGGCAGCCUUCGGUGGCGCGAUAGCGCCAACGUUCUCAACUAUGACACGCAAAACGCGUGCUCCGUUGAAUUGAGUUUAUCAUG | -4.11
GGAUCUUCUCGAUCUAACAAAAAAGACAAAUCUGCCACAAAGCUUGAGAGGAUCUUCGGAUGCAGAGGCGGCAGCCUUCGGUGGUGCGAUAGCGCCAACGUUCUCAACUAUGACACGCAAAACGCGUGCUCCGUUGAAUGGAGUUUAUCAUG | -1.91
GGAUCUUCUCGAUCUAACAAAAAAGACAAAUCUGCCACAAAGCUUGAGAGAAUCUUCGGAUGCAGAGGCGGCAGCCUUCGGUGGCACGAUAGCGCCAACGUUCUCAACUAUGACACGAAAAACGCGUGCUCCGUUGAAUGGAGUUUAUCAUG | -3.43
GGAUCUUCUCGAUCUAACAAAAAAGACAAAUCUGCCACAAAGCUUGAGAGGAUCUUCGGAUGCAGAGGCGGCAGCCUUGGGUGGCUCGAUAGCGCCAACGUUCUCAACUAUGAUACGCAAAACGCGUGCUCCGAUGAAUGGAGUUUAUCAUG | ≤ -4.2
GGAUCUUCUCGAUCUAACAAAAAAGACAAAUCUGCCACAAAGCUUGAGAGAAUCUUCGGAUGCAGAGGCGGCAGCCUUCGGUGGCGCGAUAGCGCCAACGUUCUCAACUAUGACACGCAAAACGCGGGCUCCGUUGAAUGGAGUUUAUCAUG | -4.1
GGAUCUUCUCGAUCUAACAAAAAAGACAAAUCUGCCACAAAGCUUGAGAGAAUCUUCGGAUGCAGAGGCGGCAGCCUUCGGUGGCGCGAUAGCGCCAACGUUCUCAACUAUGACACGCAAAACGCGUGCUCCGGUGAAUGGAGAUUAUCAUG | -4.17
GGAUCUUCUCGAUCUAACAAAAAAGACAAAUCUGCCACAAAGCUUGAGAGGAUCUUCGGAUGCAGAGGCGGCAGCCUUCGGUGGCGCGAUAGCGCCAACGUUCUCGACUAUGACACGCAAAACGCGUGCUCCGUUGAAUGGAGAUUAUCAUG | -3.29
GGAUCUUCUCGAUCUAACAAAAAAGACAAAUCUGCCACAAAGCUUGAGAGAAUCUUCGGAUGCAGAGGCGGCAGCCUUCGGGGGCGCGAUAGCGCUAACGUUCUCAACUAUGACACGCAAAACGCGUGCUCCGUUGAAUGGACUUUAUCAUG | ≤ -4.2
GGAUCUUCUCGAUCUAACAAAAAAGACAAAUCUGCCACAAAGCUUGAGAGAAUCUUCGGAUGCAGAGGCGGCAGCCUUCGGUGACGCGAUAGCGCCAACGUUCUCAACUAUGACACGCAAAACGCGUGCUCCGUUGAAUGGAGAUUAUCAUG | -2.52
GGAUCUUCUCGAUCUAACAAAAAAGACAAAUCUGCCACAAAGCUUGAGAGAAUCUUCGGAUGCAGAGGCGGCAGCCUUCGGUGGCGCGAUAGCGCCAACGUUCUCAACUAUGACACUCAAAACGCGUGCUCCGUUGAAUGGAGUUUAUCAUG | -1.02
GGAUCUUCUCGAUCUAACAAAAAAGACAAAUCUGCCACAAAGCUUGAGAGAAUCUUCGGAUGCAGAGGCGGCAGCCUUCGGUGGCUCGAUAGCGCCAACGUUCUCAAGUAUGACACGCAAAACGCGUGCUCCGUUGCAUGGAGUUUAUCAUG | ≤ -4.2
GGAUCUUCUCGAUCUAACAAAAAAGACAAAUCUGCCACAAAGCUUGAGAGAAUCGUCGGGUGCAGAGGCGGCAGCCUUCGGUGGCGCGAUAGUGCCAACGUUCUCAACUAUGACACGCAAAACGCGUGCUCCGUUGAAUGGAGUUUAUCAUG | -2.7
